Test results taken from patent US20110206727A1.

Target: OmpC porin purified from Salmonella typhi (Salmonella enterica subsp. enterica serovar Typhi)
Assay: phage display panning on OmpC; frequency among 8 sequenced binding phage

Frequency (fraction of sequenced phage clones)	Substance
0.125	OmpC affinity peptide SLSLIQT
0.125	OmpC affinity peptide TATYLLD
